Measurements from US20200102347A1 (AUCTUS BIOLOGIES, published 2020).
Blank lines part the entries; values can stand above or below the binder they belong to. No end group written: not given here. *: point of attachment. RhodamineB = CCN(CC)c1ccc2c(-c3ccccc3C(=O)*)c3ccc(=[N+](CC)CC)cc-3oc2c1

T1: NativeRPtag small for immobilization (Thermoanaerobacter tengcongensis, C-terminal Cys (GGC) coupled to SulfoLink agarose resin)
T1 construct: also called immobilized RPtag (small)
T1 peptide: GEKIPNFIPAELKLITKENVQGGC

T2: RPtag(small) l14a (Thermoanaerobacter tengcongensis, N-terminal rhodamine)
T2 peptide: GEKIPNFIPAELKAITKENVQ

T3: RPtag(small) l14k (Thermoanaerobacter tengcongensis, N-terminal rhodamine)
T3 construct: also called L14K RPtag(small)
T3 peptide: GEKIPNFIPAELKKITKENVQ

T4: native RPtag(small) (Thermoanaerobacter tengcongensis, N-terminal rhodamine)
T4 construct: Synthetic peptide
T4 peptide: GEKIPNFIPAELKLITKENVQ

T5: MaturePDGF-β_NterminalPeptide
T5 construct: an N-terminal G was added and is left out of the numbering; also called PDGF-β peptide
T5 peptide: RhodamineB-GSLGSLTIAEPAMIAE

T6: RPtag(small) Nd2, Cd4 (Thermoanaerobacter tengcongensis)
T6 peptide: RhodamineB-KIPNFIPAELKLITK

T7: NativeRPtag(large)_with_Tags_and_Cys (Thermoanaerobacter tengcongensis)
T7 chain: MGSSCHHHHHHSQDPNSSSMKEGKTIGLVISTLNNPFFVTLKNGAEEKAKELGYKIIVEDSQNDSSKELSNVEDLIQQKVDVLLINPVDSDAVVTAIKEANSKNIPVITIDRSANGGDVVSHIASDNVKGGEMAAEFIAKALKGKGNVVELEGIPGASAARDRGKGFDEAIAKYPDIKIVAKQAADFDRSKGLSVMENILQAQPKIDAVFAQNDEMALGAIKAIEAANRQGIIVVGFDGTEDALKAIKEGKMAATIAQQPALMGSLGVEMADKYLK

B1: Cterminally_tagged_NativeRPtag(large)_tagRFP (other)
chain: MGSSHHHHHHHHGSMVSKGEELIKENMHMKLYMEGTVNNHHFKCTSEGEGKPYEGTQTMRIKVVEGGPLPFAFDILATSFMYGSRTFINHTQGIPDFFKQSFPEGFTWERVTTYEDGGVLTATQDTSLQDGCLIYNVKIRGVNFPSNGPVMQKKTLGWEANTEMLYPADGGLEGRSDMALKLVGGGHLICNFKTTYRSKKPAKNLKMPGVYYVDHRLERIKEADKETYVEQHEVAVARYCDLPSKLGHKLNGSSGENLYFQGGSSQDPNSSSMKEGKTIGLVISTLNNPFFVTLKNGAEEKAKELGYKIIVEDSQNDSSKELSNVEDLIQQKVDVLLINPVDSDAVVTAIKEANSKNIPVITIDRSANGGDVVSHIASDNVKGGEMAAEFIAKALKGKGNVVELEGIPGASAARDRGKGFDEAIAKYPDIKIVAKQAADFDRSKGLSVMENILQAQPKIDAVFAQNDEMALGAIKAIEAANRQGIIVVGFDGTEDALKAIKEGKMAATIAQQPALMGSLGVEMADKYLK
notes: Fusion of 8XHis, tagRFP, TEV site and RPtag(large)
B2: NativeRPtag(large)_with_Tags_and_Cys (other)
chain: T7 chain
notes: Unlabeled in anisotropy assays; coupled through the engineered N-terminal Cys to SulfoLink agarose or maleimide plates in column, pull-down and ELISA assays
B3: RP-Tag Small (Sequence 3: SEQ ID NO:13 with a glycine serine tail) (peptide)
peptide: RhodamineB-GEKIPNFIPAELKLITKENVQGS
modifications: also: N-terminal label: Rhodamine B / Rhodamine 6B
notes: also called RP-small peptide
B4: Cterminally_tagged_NativeRPtag(small)_tagRFP (other)
chain: MGSSHHHHHHHHGSMVSKGEELIKENMHMKLYMEGTVNNHHFKCTSEGEGKPYEGTQTMRIKVVEGGPLPFAFDILATSFMYGSRTFINHTQGIPDFFKQSFPEGFTWERVTTYEDGGVLTATQDTSLQDGCLIYNVKIRGVNFPSNGPVMQKKTLGWEANTEMLYPADGGLEGRSDMALKLVGGGHLICNFKTTYRSKKPAKNLKMPGVYYVDHRLERIKEADKETYVEQHEVAVARYCDLPSKLGHKLNGSSGENLYFQGGSGEKIPNFIPAELKLITKENVQGS
notes: Fusion of 8XHis, tagRFP, TEV site and RPtag(small)
B5: Nterminally tagged NativeRPtag(small)_tagRFP (other)
chain: MGSSGEKIPNFIPAELKLITKENVQGSENLYFQGGSMVSKGEELIKENMHMKLYMEGTVNNHHFKCTSEGEGKPYEGTQTMRIKVVEGGPLPFAFDILATSFMYGSRTFINHTQGIPDFFKQSFPEGFTWERVTTYEDGGVLTATQDTSLQDGCLIYNVKIRGVNFPSNGPVMQKKTLGWEANTEMLYPADGGLEGRSDMALKLVGGGHLICNFKTTYRSKKPAKNLKMPGVYYVDHRLERIKEADKETYVEQHEVAVARYCDLPSKLGHKLNGSSGHHHHHHHH
notes: Fusion of RPtag(small), TEV site, tagRFP and 8XHis

Assays:
[1] = target: T1, NativeRPtag small for immobilization; test: column binding; 25 mL of 1 µM tagRFP fusion applied to immobilized RPtag (small), washed with 10 mL TNE buffer, photographed
Procedure: (§1) After purification of the tagged proteins, each was applied to its complementary column to evaluate binding. […] Briefly, columns were first equilibrated in 20 mM Tris pH 8.0, 150 mM NaCl, 1 mM EDTA (TNE buffer), then 25 mL of 1 μM tagged protein in TNE buffer was applied to the column at a flow rate of 1 ml/min, then washed with 10 mL of TNE buffer. Columns were cleaned with 10 mL 100 mM Glycine pH 1.5 between uses.
(§2) Briefly, columns were equilibrated in 20 mM Tris pH 8.0, 150 mM NaCl, 1 mM EDTA (TEN buffer), then 25 mL of 1 μM tagged protein in TEN buffer was applied to the column at a flow rate of 1 ml/min. Thereafter, the column was washed with 10 mL of TEN buffer, and the results recorded by photograph (FIG. 8). Columns were cleaned with 10 mL 100 mM Glycine pH 1.5 between uses.

[2] = target: B2; test: column binding; non-complementary tagRFP fusion applied to immobilized RPtag (large), washed, photographed
RPtag(small) l14a = target: T2, RPtag(small) l14a; test: fluorescence anisotropy; 1 nM rhodamine RPtag small peptide, unlabeled RPtag large titrated, 1 h; 50 mM Tris pH 8.0, 0.005% Tween20; bar of Ka = 1/Kd
Procedure: (§3) Resultant curves were fit with the equation f=y0+(ymax−y0)*(Ptot+x+Kd−sqrt((Ptot+x+Kd)\hat{ }2−4*Ptot*x))/(2*Ptot), where y0 is the baseline anisotropy, ymax is the maximum anisotropy, Ptot is the fixed concentration of labeled peptide used, x is the variable concentration of protein used, and Kd is the measured Kd. […] Buffer was 50 mM Tris pH 8.0, 0.005% tween20.

RPtag(small) l14k = target: T3, RPtag(small) l14k; test: as above
Procedure: as §3

[3] = target: B3; test: fluorescence anisotropy, 50 nM Rhodamine B RP-Tag Small
Procedure: (§4) Anisotropy was then measured, and a Kd calculated by fitting the data to the equation f=y₀+(yₘₐₓ−y₀)*(Pₜₒₜ+x+Kd−sqrt((Pₜₒₜ+x+Kd)\hat{ }2-4*Pₜₒₜ*x))/(2*Pₜₒₜ), where y₀ is the baseline anisotropy, yₘₐₓ is the maximum anisotropy, Pₜₒₜ is the fixed concentration of labeled peptide used, x is the variable concentration of protein used, and Kd is the measured Kd.

[4] = target: B3; test: fluorescence anisotropy; 50 nM N-terminal Rhodamine B RP-Tag Small, RP-Tag Large titrated; 50 mM Tris pH 8.0, 150 mM NaCl, 10 mM 2-mercaptoethanol, 0.005% Tween 20
Procedure: as §4

native RPtag(small) [5] = target: T4, native RPtag(small); test: fluorescence anisotropy
Procedure: (§5) Kd's were calculated according to the equation f=y0+(ymax−y0)*(Ptot+x+Kd−sqrt((Ptot+x+Kd)\hat{ }2−4*Ptot*x))/(2*Ptot), where y0 is the baseline anisotropy, ymax is the maximum anisotropy, Ptot is the fixed concentration of labeled peptide used, x is the variable concentration of protein used, and Kd is the measured Kd.

native RPtag(small) [6] = target: T4, native RPtag(small); test: fluorescence anisotropy after a 15 min 121 C autoclave cycle of RP-tag (large); RP-tag (large) autoclaved 15 min at 121 C before the measurement
[7] = target: T5, MaturePDGF-β_NterminalPeptide; test: fluorescence anisotropy, 20 nM rhodamine PDGF-β N-terminal peptide
Procedure: (§6) After the incubation, fluorescence anisotropy was measured, and the resultant curves were fit with the equation f=y0+(ymax−y0)*(Ptot+x+Kd−sqrt((Ptot+x+Kd)\hat{ }2−4*Ptot*x))/(2*Ptot), where y0 is the baseline anisotropy, ymax is the maximum anisotropy, Ptot is the fixed concentration of labeled peptide used, x is the variable concentration of protein used, and Kd is the measured Kd. […] Buffer was 50 mM Tris pH 8.0, 0.005% Tween20.

native RPtag(small) [8] = target: T4, native RPtag(small); test: fluorescence anisotropy; 1 nM rhodamine native RPtag (small), RPtag (large) titrated
Procedure: as §5

native RPtag(small) [9] = target: T4, native RPtag(small); test: fluorescence anisotropy, 1 nM rhodamine peptide
Procedure: as §5

RPtag(small) Nd2, Cd4 = target: T6, RPtag(small) Nd2, Cd4; test: fluorescence anisotropy; 2 nM rhodamine Nd2Cd4, unlabeled RPtag large variant titrated; bar of Ka = 1/Kd, right axis
Procedure: as §6

[10] = target: T7, NativeRPtag(large)_with_Tags_and_Cys …; test: fluorescence anisotropy; NH4SO4 (3M)
[11] = target: T7, NativeRPtag(large)_with_Tags_and_Cys …; test: fluorescence anisotropy; BME (10%)
[12] = target: T7, NativeRPtag(large)_with_Tags_and_Cys …; test: pull-down with RPtag(large) resin
[13] = target: T7, NativeRPtag(large)_with_Tags_and_Cys …; test: fluorescence anisotropy; EtOH (20%); EtOH (20%)
[14] = target: T7, NativeRPtag(large)_with_Tags_and_Cys …; test: fluorescence anisotropy; acetone (20%)
[15] = target: T7, NativeRPtag(large)_with_Tags_and_Cys …; test: fluorescence anisotropy; TritonX-100 (2%)
[16] = target: T7, NativeRPtag(large)_with_Tags_and_Cys …; test: fluorescence anisotropy; 50 mM Tris pH 8.0, 0.005% Tween 20, no additive (Table 2)
[17] = target: T7, NativeRPtag(large)_with_Tags_and_Cys …; test: fluorescence anisotropy; sorbitol (3M)
[18] = target: T7, NativeRPtag(large)_with_Tags_and_Cys …; test: fluorescence anisotropy, competitor chase; 50 mM Tris pH 8.0, 0.005% Tween 20, no additive (Table 2)
[19] = target: T7, NativeRPtag(large)_with_Tags_and_Cys …; test: fluorescence anisotropy; Tween20 (2%)
[20] = target: T7, NativeRPtag(large)_with_Tags_and_Cys …; test: fluorescence anisotropy; ribose (3M)
[21] = target: T7, NativeRPtag(large)_with_Tags_and_Cys …; test: fluorescence anisotropy; PG (50%)
[22] = target: T7, NativeRPtag(large)_with_Tags_and_Cys …; test: fluorescence anisotropy; glycerol (20%)
[23] = target: T7, NativeRPtag(large)_with_Tags_and_Cys …; test: fluorescence anisotropy, buffer additive screen
[24] = target: T7, NativeRPtag(large)_with_Tags_and_Cys …; test: fluorescence anisotropy; NiCl2 (100 mM)
[25] = target: T7, NativeRPtag(large)_with_Tags_and_Cys …; test: fluorescence anisotropy; DTT (100 mM)
[26] = target: T7, NativeRPtag(large)_with_Tags_and_Cys …; test: fluorescence anisotropy; KCl (3M)
[27] = target: T7, NativeRPtag(large)_with_Tags_and_Cys …; test: fluorescence anisotropy; MeOH (20%); MeOH (20%)
[28] = target: T7, NativeRPtag(large)_with_Tags_and_Cys …; test: fluorescence anisotropy; MnSO4 (10 mM)
[29] = target: T7, NativeRPtag(large)_with_Tags_and_Cys …; test: fluorescence anisotropy; No Additive; No Additive; 100 mM Tris pH 8.0, 0.005% Tween 20 (Table 3)
[30] = target: T7, NativeRPtag(large)_with_Tags_and_Cys …; test: fluorescence anisotropy; MgCl2 (3M)
[31] = target: T7, NativeRPtag(large)_with_Tags_and_Cys …; test: fluorescence anisotropy; DMSO (20%); DMSO (20%)
[32] = target: T7, NativeRPtag(large)_with_Tags_and_Cys …; test: fluorescence anisotropy; NaCl (3M)
Bovine Serum Albumin = target: T8, Bovine Serum Albumin (bovine, UniProt P02769 25-607); test: fluorescence anisotropy; 50 nM N-terminal Rhodamine B RP-Tag Small, BSA titrated
T8 construct: also called BSA
T8 sequence (P02769 25-607 limits assumed): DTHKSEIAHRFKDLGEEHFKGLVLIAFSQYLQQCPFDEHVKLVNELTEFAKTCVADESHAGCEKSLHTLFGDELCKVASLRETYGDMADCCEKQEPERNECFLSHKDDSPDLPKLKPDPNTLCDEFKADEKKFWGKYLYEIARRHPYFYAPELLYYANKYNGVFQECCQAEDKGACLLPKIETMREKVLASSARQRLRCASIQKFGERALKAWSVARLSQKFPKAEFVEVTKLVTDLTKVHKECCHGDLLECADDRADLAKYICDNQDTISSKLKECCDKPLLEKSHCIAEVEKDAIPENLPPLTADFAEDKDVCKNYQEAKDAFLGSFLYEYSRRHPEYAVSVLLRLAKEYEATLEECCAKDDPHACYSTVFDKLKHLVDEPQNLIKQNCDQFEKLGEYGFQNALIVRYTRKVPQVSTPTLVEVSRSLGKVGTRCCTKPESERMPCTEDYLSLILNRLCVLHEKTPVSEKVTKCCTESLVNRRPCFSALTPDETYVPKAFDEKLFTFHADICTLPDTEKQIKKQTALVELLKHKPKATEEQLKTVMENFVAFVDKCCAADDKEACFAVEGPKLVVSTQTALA
Procedure: as §4

[33] = target: T1, NativeRPtag small for immobilization; test: column binding; non-complementary tagRFP fusion applied to immobilized RPtag (small), washed, photographed
[34] = target: B2; test: column binding; 25 mL of 1 µM tagRFP fusion applied to immobilized RPtag (large), washed with 10 mL TNE buffer, photographed
Procedure: as §1, §2

Binder: B1
binding result [1]: binds
binding result [2]: no binding (tested: 1 µM (25 mL applied))

Binder: B2
binding result (RPtag(small) l14a): binds
binding result (RPtag(small) l14k): binds
Kd [3]: 8 nM
EC50 (read off the curve) [4]: ~30 nM
fold better Kd than anti-6xHis/6xHis (native RPtag(small) [5]): ~30 fold
fold selectivity over BSA (native RPtag(small) [5]): > 50000 fold
Kd (native RPtag(small) [6]): 53 nM
Kd [7]: 7300 nM
EC50 (read off the curve) (native RPtag(small) [8]): ~0.8 nM
Kd (native RPtag(small) [9]): 0.2 nM
binding result (RPtag(small) Nd2, Cd4): binds

Kd [10]: 2.8 nM
Kd [11]: 740 nM
resin binding capacity [12]: 200 nmol/mL
Kd [13]: 733 nM
Kd [14]: 22 nM
Kd [15]: 180 nM
Kd [16]: 14 nM
Kd [17]: 16 nM
koff [18]: > 0.0333 s⁻¹
Kd [19]: 45 nM
Kd [20]: 42 nM
Kd [21]: 4600 nM
Kd [22]: 27 nM
fold increase of affinity with kosmotropic salts (NaCl, KCl) [23]: > 100 fold
Kd [24]: 42 nM
Kd [25]: 33 nM
Kd [26]: 0.066 nM
Kd [27]: 34 nM
Kd [28]: 160 nM
Kd [29]: 14 nM
Kd [30]: 240 nM
Kd [31]: 140 nM
Kd [32]: 0.15 nM
Binder: PAELKLITK (modifications not checked) [RPtag(small) Nd8, Cd4]

Binder: B3
binding result (Bovine Serum Albumin): no binding

Binder: B4
binding result [33]: no binding (tested: 1 µM (25 mL applied))
binding result [34]: binds

Binder: B5
binding result [33]: no binding (tested: 1 µM (25 mL applied))
binding result [34]: binds
